# According to publication PMC11199644, “Structural and mechanistic insights into a lysosomal membrane enzyme HGSNAT involved in Sanfilippo syndrome” (Nature Communications, 2024):
# Target: the molecule itself
# Assay: cryo-EM structure; purified HGSNAT in 20 mM HEPES pH 7.4, 150 mM NaCl, 0.01% GDN; apo (two conformations) or with acetyl-CoA, CoA, acetyl-CoA + MU-βGlcN, CoA + MUF-NAG; six structures, all dimers
protein,measurement,value
"heparan sulfate acetyl-CoA:α-glucosaminide N-acetyltransferase (HGSNAT) (enzyme, human, UniProt Q68CP4-2 1-635, looked up, human HGSNAT, open reading frame of UniProt Q68CP4-2 (short isoform 2, 28 residues from the N-terminal missing); The purified sample held two species, the full-length protein and the auto-cleaved form (alpha and beta chains still together); A thrombin site lies between HGSNAT and the tags, so some residues of it may be left after cleavage; also called TMEM76; heparan-α-glucosaminide …) MSGAGRALAALLLAASVLSAALLAPGGSSGRDAQAAPPRDLDKKRHAELKMDQALLLIHNELLWTNLTVYWKSECCYHCLFQVLVNVPQSPKAGKPSAAAASVSTQHGSILQLNDTLEEKEVCRLEYRFGEFGNYSLLVKNIHNGVSEIACDLAVNEDPVDSNLPVSIAFLIGLAVIIVISFLRLLLSLDDFNNWISKAISSRETDRLINSELGSPSRTDPLDGDVQPATWRLSALPPRLRSVDTFRGIALILMVFVNYGGGKYWYFKHASWNGLTVADLVFPWFVFIMGSSIFLSMTSILQRGCSKFRLLGKIAWRSFLLICIGIIIVNPNYCLGPLSWDKVRIPGVLQRLGVTYFVVAVLELLFAKPVPEHCASERSCLSLRDITSSWPQWLLILVLEGLWLGLTFLLPVPGCPTGYLGPGGIGDFGKYPNCTGGAAGYIDRLLLGDDHLYQHPSSAVLYHTEVAYDPEGILGTINSIVMAFLGVQAGKILLYYKARTKDILIRFTAWCCILGLISVALTKVSENEGFIPVNKNLWSLSYVTTLSSFAFFILLVLYPVVDVKGLWTGTPFFYPGMNSILVYVGHEVFENYFPFQWKLKDNQSHKEHLTQNIVATALWVLIAYILYRKKIFWKI",stoichiometry N,2
